# From patent US20210355194A1 (TWIST BIOSCIENCE, published 2021)
# Substitutions are numbered along the chain they refer to. Where two headings read alike, the source gives them in different places.
# B1: variant 6-57 (Fc fusion)
# VHH: EVQLVESGGGLVQPGGSLRLSCAASGLTFDDHSMGWFRQAPGKEREFVAAVPLSGNTYYADSVKGRFTISADNSKNTAYLQMNSLKPEDTAVYYCASFSGGPADFDYWGQGTLVTVSS
# B2: variant 6-54 (Fc fusion)
# VHH: EVQLVESGGGLVQPGGSLRLSCAASGFEFENHWMGWFRQAPGKEREYVAHITAGGLSNYADSVKGRFTISADNSKNTAYLQMNSLKPEDTAVYYCGRHWGIYDSSGFSSFDYWGQGTLVTVSS
# B3: variant 5-1 (Fc fusion)
# VHH: EVQLVESGGGLVQPGGSLRLSCAASGGTFSSIGMGWFRQAPGKEREFVAAISWDGGATAYADSVKGRFTISADNSKNTAYLQMNSLKPEDTAVYYCAKEDVGKPFDWGQGTLVTVSS
# notes: VHH-Fc
# B4: variant 6-38 (Fc fusion)
# VHH: EVQLVESGGGLVQPGGSLRLSCAASGNTFSGGFMGWFRQAPGKEREFVAVISSLSSKSYADSVKGRFTISADNSKNTAYLQMNSLKPEDTAVYYCAKVDSGYDYWGQGTLVTVSS
# B5: variant 2-9 (antibody, V domains shown)
# VH: EVQLLESGGGLVQPGGSLRLSCAASGFTFPRYAMSWVRQAPGKGLEWVSTISGSGSTTYYADSVKGRFTISRDNSKNTLYLQMNSLRAEDTAVYYCARLIDAFDIWGQGTLVTVSS
# VL: DIQMTQSPSSLSASVGDRVTITCRASQRIGTYLNWYQQKPGKAPKLLIYAASNLEGGVPSRFSGSGSGTDFTLTISSLQPEDFATYYCQQNYSTTWTFGQGTKVEIK
# B6: variant 6-45 (Fc fusion)
# VHH: EVQLVESGGGLVQPGGSLRLSCAASGNMFSINAMGWFRQAPGKEREFVTLISWSSGRTSYADSVKGRFTISADNSKNTAYLQMNSLKPEDTAVYYCASLGYCSGGSCFDYWGQGTLVTVSS
# B7: variant 6-34 (Fc fusion)
# VHH: EVQLVESGGGLVQPGGSLRLSCAASGSAFRSNAMGWFRQAPGKEREFVAHISWSSKSTYYADSVKGRFTISADNSKNTAYLQMNSLKPEDTAVYYCATYCSSTSCFDYWGQGTLVTVSS
# B8: variant 5-34 (Fc fusion)
# VHH: EVQLVESGGGLVQPGGSLRLSCAASGRTFSRYIMGWFRQAPGKEREFVAAISWSGGDNTYYADSVKGRFTISADNSKNTAYLQMNSLKPEDTAVYYCAAYRIVVGGTSPGDWRWGQGTLVTVSS
# notes: VHH-Fc
# B9: variant 6-18 (Fc fusion)
# VHH: EVQLVESGGGLVQPGGSLRLSCAASGLTFRNYAMGWFRQAPGKEREFIAGMMWSGGTTTYADSVKGRFTISADNSKNTAYLQMNSLKPEDTAVYYCAREGYYYDSSGYLNYFDYWGQGTLVTVSS
# B10: variant 6-44 (Fc fusion)
# VHH: EVQLVESGGGLVQPGGSLRLSCAASGGTFGVYHMGWFRQAPGKEREFIGRITWTDGSTYYADSVKGRFTISADNSKNTAYLQMNSLKPEDTAVYYCFGLLEVYDMTFDYWGQGTLVTVSS
# B11: variant 6-40 (Fc fusion)
# VHH: EVQLVESGGGLVQPGGSLRLSCAASGFTFSDYWMGWFRQAPGKERELVARVWWNGGSAYYADSVKGRFTISADNSKNTAYLQMNSLKPEDTAVYYCAREVLRQQVVLDYWGQGTLVTVSS
# B12: variant 6-10 (Fc fusion)
# VHH: EVQLVESGGGLVQPGGSLRLSCAASGSIASIHAMGWFRQAPGKEREFVAAISRSGGFGSYADSVKGRFTISADNSKNTAYLQMNSLKPEDTAVYYCARDDKYYDSSGYPAYFQHWGQGTLVTVSS
# B13: variant 6-1 (Fc fusion)
# VHH: EVQLVESGGGLVQPGGSLRLSCAASGRTFGNYNMGWFRQAPGKEREFVATINSLGGTSYADSVKGRFTISADNSKNTAYLQMNSLKPEDTAVYYCARVDYYMDVWGQGTLVTVSS
# B14: variant 6-65 (Fc fusion)
# VHH: EVQLVESGGGLVQPGGSLRLSCAASGLPFSTLHMGWFRQAPGKEREFVASLSIFGATGYADSVKGRFTISADNSKNTAYLQMNSLKPEDTAVYYCWMYYYDSSGYYGNYYYGMDVWGQGTLVTVSS
# B15: variant 3-10 (antibody, V domains shown)
# VH: EVQLLESGGGLVQPGGSLRLSCAASGFTFRSHAMSWVRQAPGKGLEWVSSISGGGASTYYADSVKGRFTISRDNSKNTLYLQMNSLRAEDTAVYYCARVKYLTTSSGWPRPYFDNWGQGTLVTVSS
# VL: DIQMTQSPSSLSASVGDRVTITCRASQSIRKYLNWYQQKPGKAPKLLIYASSTLQRGVPSRFSGSGSGTDFTLTISSLQPEDFATYYCQQSLSTPFTFGGGTKVEIK
# B16: variant 5-37 (Fc fusion)
# VHH: EVQLVESGGGLVQPGGSLRLSCAASGSTFSINAMGWFRQAPGKEREFVGGISRSGATTNYADSVKGRFTISADNSKNTAYLQMNSLKPEDTAVYYCAADGVPEYSDYASGPVWGQGTLVTVSS
# notes: VHH-Fc
# B17: variant 5-20 (Fc fusion)
# VHH: EVQLVESGGGLVQPGGSLRLSCAASGRTIVPYTMGWFRQAPGKERELVAAISPSAFTEYADSVKGRFTISADNSKNTAYLQMNSLKPEDTAVYYCAARRWGYDWGQGTLVTVSS
# notes: VHH-Fc
# B18: variant 6-41 (Fc fusion)
# VHH: EVQLVESGGGLVQPGGSLRLSCAASGFTFSTSWMGWFRQAPGKEREFVASINEYGGRNYADSVKGRFTISADNSKNTAYLQMNSLKPEDTAVYYCAGLHYYYDSSGYNPTEYYGMDVWGQGTLVTVSS
# B19: variant 6-39 (Fc fusion)
# VHH: EVQLVESGGGLVQPGGSLRLSCAASGFTFSPSWMGWFRQAPGKEREFVAAISWSGGSTAYADSVKGRFTISADNSKNTAYLQMNSLKPEDTAVYYCHGLGEGDPYGDYEGYFDLWGQGTLVTVSS
# B20: 2-4 (antibody, V domains shown)
# VH: EVQLLESGGGLVQPGGSLRLSCAASGFTFSDFAMAWVRQAPGKGLEWVSAISGSGDITYYADSVKGRFTISRDNSKNTLYLQMNSLRAEDTAVYYCAREADGLHSPWHFDLWGQGTLVTVSS
# VL: DIQMTQSPSSLSASVGDRVTITCRASQSIDTYLNWYQQKPGKAPKLLIYAASALASGVPSRFSGSGSGTDFTLTISSLQPEDFATYYCQQSYSAPPYTFGQGTKVEIK
# notes: also called variant 2-4
# B21: variant 2-1 (antibody, V domains shown)
# VH: EVQLLESGGGLVQPGGSLRLSCAASGFTFSNYATDWVRQAPGKGLEWVSIISGSGGATYYADSVKGRFTISRDNSKNTLYLQMNSLRAEDTAVYYCAKGGYCSSDTCWWEYWLDPWGQGTLVTVSS
# VL: DIQMTQSPSSLSASVGDRVTITCRASQSIHRFLNWYQQKPGKAPKLLIYAASNLHSGVPSRFSGSGSGTDFTLTISSLQPEDFATYYCQQSYGLPPTFGQGTKVEIK
# B22: variant 6-47 (Fc fusion)
# VHH: EVQLVESGGGLVQPGGSLRLSCAASGRTFSMHAMGWFRQAPGKERELVASITYGGNINYADSVKGRFTISADNSKNTAYLQMNSLKPEDTAVYYCAKEGYYDSTGYRTYFQQWGQGTLVTVSS
# B23: variant 6-67 (Fc fusion)
# VHH: EVQLVESGGGLVQPGGSLRLSCAASGSFSNYAMGWFRQAPGKEREFVAAISSSGALTSYADSVKGRFTISADNSKNTAYLQMNSLKPEDTAVYYCWIVGPGPLDGMDVWGQGTLVTVSS
# B24: variant 6-30 (Fc fusion)
# VHH: EVQLVESGGGLVQPGGSLRLSCAASGFAFGDSWMGWFRQAPGKEREFVATINWSGVTAYADSVKGRFTISADNSKNTAYLQMNSLKPEDTAVYYCARADGYFDYWGQGTLVTVSS
# B25: variant 6-7 (Fc fusion)
# VHH: B24 VHH with A28T, G30S, D31S, S32Y, G100D
# B26: variant 6-77 (Fc fusion)
# VHH: EVQLVESGGGLVQPGGSLRLSCAASGFTFDRSWMGWFRQAPGKEREFVAAVTEGGTTSYADSVKGRFTISADNSKNTAYLQMNSLKPEDTAVYYCARADYDFDYWGQGTLVTVSS
# Tests used:
# [1] = biological target: SARS-COV2-S1 RBD (mouse IgG2Fc tag) (SARS-CoV-2, UniProt P0DTC2 319-537)
# [2] = biological target: T1, Acro SARS-CoV-2 (COVID-19) S1 protein (SARS-CoV-2, UniProt P0DTC2 16-685); assay: SPR
# T1 construct: also called SARS-CoV-2 S1
# [3] = biological target: SARS-COV2-S1 RBD (mouse IgG2Fc tag) (SARS-CoV-2, UniProt P0DTC2 319-537); assay: FACS, S1 RBD-mFc on Vero E6 (ACE2)
# [4] = biological target: T2, Acro SARS-CoV-2 (COVID-19) S1 protein (SARS-CoV-2, UniProt P0DTC2 16-685); assay: SPR; remark: listed apart in the source
# T2 construct: also called SARS-CoV-2 S1
# [5] = biological target: T3, COVID S1 RBM Fc fusion (Antigen 2) (SARS-CoV-2, UniProt P0DTC2 437-508); assay: phage ELISA
# T3 construct: domain: S1 RBM
# [6] = biological target: T4, COVID S1 RBD Fc fusion (Antigen 1) (SARS-CoV-2, UniProt P0DTC2 319-541); assay: phage ELISA
# T4 construct: domain: S1 RBD
# [7] = biological target: SARS-CoV-2 spike on live SARS-CoV-2 virus (SARS-CoV-2, UniProt P0DTC2 14-1273); assay: cell-based or functional assay
# [8] = biological target: T5, SARS-CoV-2 S1 protein (SARS-CoV-2, UniProt P0DTC2 16-685); assay: phage ELISA screen on S1, mean
# T5 construct: also called SARS-CoV-2 Spike Glycoprotein S1; S1 (subunit 1)
binder,measurement,setting,value
B1,IC50,[1],3.13 nM
B2,IC50,[1],8.9 nM
B3,Kd,[2],15.1 nM
same,Competition Factor,[3],10
B4,IC50,[1],1.94 nM
same,Kd,[4],26.6 nM
B5,"specificity ELISA, fold over background",[5],0.8 fold over background
same,"specificity ELISA, percent binding relative to Acro S1",[5],3.5%
same,"specificity ELISA, fold over background",[6],24.3 fold over background
same,"specificity ELISA, percent binding relative to Acro S1",[6],101%
B6,IC50,[1],1.16 nM
same,EC80,[7],4.02 µg/mL
same,Kd,[4],17.5 nM
B7,IC50,[1],8.24 nM
same,Kd,[4],21.3 nM
B8,Competition Factor,[3],5.69
B9,IC50,[1],12.3 nM
same,Kd,[4],30.1 nM
B10,IC50,[1],0.97 nM
same,EC80,[7],3.16 µg/mL
same,Kd,[4],8.2 nM
B11,IC50,[1],1.36 nM
B12,IC50,[1],1.44 nM
same,Kd,[4],29.7 nM
B13,IC50,[1],15.8 nM
B14,IC50,[1],37.5 nM
B15,"specificity ELISA, fold over background",[5],1.1 fold over background
same,"specificity ELISA, percent binding relative to Acro S1",[5],93.3%
same,"specificity ELISA, fold over background",[6],1.2 fold over background
same,"specificity ELISA, percent binding relative to Acro S1",[6],97.2%
B16,Kd,[2],30.2 nM
same,Competition Factor,[3],8.19
B17,Kd,[2],14.3 nM
same,Competition Factor,[3],12.4
B18,IC50,[1],6.6 nM
B19,IC50,[1],1.53 nM
same,Kd,[4],11.3 nM
B20,ELISA(Avg),[8],15.5 fold over background
B21,"specificity ELISA, fold over background",[5],1.5 fold over background
same,"specificity ELISA, percent binding relative to Acro S1",[5],3.9%
same,"specificity ELISA, fold over background",[6],36.8 fold over background
same,"specificity ELISA, percent binding relative to Acro S1",[6],93.7%
B22,IC50,[1],5.86 nM
B23,IC50,[1],3.8 nM
B24,IC50,[1],2.94 nM
same,Kd,[4],11.8 nM
B25,IC50,[1],1.53 nM
B26,IC50,[1],4.04 nM
same,Kd,[4],24.6 nM
